Source: PMC5852159, “Hydrogen peroxide positively regulates brassinosteroid signaling through oxidation of the BRASSINAZOLE-RESISTANT1 transcription factor” (Nature Communications, 2018)

Biological target: T1, MBP-BZR1 (maltose-binding protein-BRASSINAZOLE-RESISTANT1 fusion) (Arabidopsis thaliana, UniProt Q8S307 1-336)
T1 construct: BRASSINAZOLE-RESISTANT1 (BZR1), Arabidopsis thaliana; full length cDNA without stop codon, recombined into pMAL2CGW (N-MBP); In part of the pull-downs 1 mM H2O2 stood in the buffer, which oxidises BZR1 (mainly at Cys-63); also called recombinant BZR1; source: E. coli, purified (amylose resin); not shown: MBP, N-terminal, kept
T1 sequence (looked up): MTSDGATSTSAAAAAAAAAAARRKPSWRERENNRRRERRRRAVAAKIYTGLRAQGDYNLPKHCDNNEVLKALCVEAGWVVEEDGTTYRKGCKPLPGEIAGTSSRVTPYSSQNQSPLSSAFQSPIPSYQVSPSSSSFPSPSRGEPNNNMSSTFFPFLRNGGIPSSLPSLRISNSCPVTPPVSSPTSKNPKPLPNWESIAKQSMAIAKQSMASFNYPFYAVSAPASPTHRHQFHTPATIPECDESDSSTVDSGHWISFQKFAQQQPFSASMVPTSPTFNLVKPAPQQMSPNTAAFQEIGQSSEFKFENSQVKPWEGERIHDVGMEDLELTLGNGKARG
Assay: pull-down; glutathione beads with 1 µg GST fusion incubated with 1 µg MBP or MBP fusion; 20 mM Tris-HCl pH 7.5, 100 mM NaCl, 1 mM EDTA, with or without 1 mM H2O2, 4 °C, 1 h; washed with 300 mM NaCl, 0.1% Nonidet P-40; blots with anti-MBP and anti-GST
Settings: both partners purified

B1: GST-TRXh5 (enzyme, Arabidopsis thaliana, UniProt Q39241 1-118, looked up)
chain: MAGEGEVIACHTLEVWNEKVKDANESKKLIVIDFTASWCPPCRFIAPVFAEMAKKFTNVVFFKIDVDELQAVAQEFKVEAMPTFVFMKEGNIIDRVVGAAKDEINEKLMKHGGLVASA
notes: thioredoxin h5 (TRXh5), Arabidopsis thaliana; full length cDNA without stop codon, recombined into pDEST15 (N-GST); also called thioredoxin TRXh5; source: bacteria, purified (glutathione beads); not shown: GST, N-terminal, kept
binding result: binds
